These results are taken from paper PMC2719355 (The Journal of Biological Chemistry, 2009).

This series deals with the molecule itself. As to the kind of experiment: mass spectrometry.

B1: recombinant full-length human butyrylcholinesterase, usual form (rBChE-U) (enzyme)
chain: EDDIIIATKNGKVRGMNLTVFGGTVTAFLGIPYAQPPLGRLRFKKPQSLTKWSDIWNATKYANSCCQNIDQSFPGFHGSEMWNPNTDLSEDCLYLNVWIPAPKPKNATVLIWIYGGGFQTGTSSLHVYDGKFLARVERVIVVSMNYRVGALGFLALPGNPEAPGNMGLFDQQLALQWVQKNIAAFGGNPKSVTLFGESAGAASVSLHLLSPGSHSLFTRAILQSGSFNAPWAVTSLYEARNRTLNLAKLTGCSRENETEIIKCLRNKDPQEILLNEAFVVPYGTPLSVNFGPTVDGDFLTDMPDILLELGQFKKTQILVGVNKDEGTAFLVYGAPGFSKDNNSIITRKEFQEGLKIFFPGVSEFGKESILFHYTDWVDDQRPENYREALGDVVGDYNFICPALEFTKKFSEWGNNAFFYYFEHRSSKLPWPEWMGVMHGYEIEFVFGLPLERRDNYTKAEEILSRSIVKRWANFAKYGNPNETQNNSTSWPVFKSTEQKYLTLNTESTRIMTKLRAQQCRFWTSFFPKVLEMTGNIDEAEWEWKAGFHRWNNYMMDWKNQFNDYTSKKESCVGL
For the protein B1, the “stoichiometry N” value amounted to 2.

Usually stoichiometry N stands for the number of molecules, sites or subunits per partner or assembly.
